Measurements taken from patent US10494417B2, “Peptide inhibitors of BCR-ABL oligomerization” (University of Utah Research Foundation, priority 2014, dated 2019).
Entries after “also recorded” stand apart in the source; their conditions may differ.

System: parental Ba/F3 cells
Test: Colony forming assay of transfected parental Ba/F3 cells
Format: cell-based, mouse
Settings: CCmut3 vs EV
Description: Both EGFP and EGFP-CC^mut3 were transfected into separate groups of cells on day 0. One day following transfection, 1.0×10^6 cells per treatment group were collected and re-suspended in 1.0 mL of PBS. Through serial dilutions, 1.0×10^3 cells in IMDM (Isocove's modified Dulbecco's media) with 2% FBS were seeded into methylcellulose medium in the absence of cytokines (MethoCult H4230 for K562 cells and MethoCult M3234 for p210 and p210-T315I cells) or in the presence of cytokines (MethoCult GF M3434 for parental Ba/F3 cells). Ponatinib was then added in the correct molar amounts (0, 100 pM, 1 nM, or 10 nM) to the methylcellulose medium. Colonies formed were counted after 7 days of incubation. All reagents were purchased from Stem Cell Technologies, Vancouver, BC, Canada. Assay was run three separate times (n=3) in duplicate.
Following selection of transfected cells by cell sorting, viable cells were enumerated and seeded into methylcellulose as described previously (Dixon, A. S., et al. (2011) J. Biol. Chem. 286, 27751-27760). Briefly, mCherry-positive Ba/F3 cells were re-suspended in IMDM with 2% FBS (Stem Cell Technologies) at a concentration of 10,000 cells/mL. […] Colonies were counted 7 days later in an area of […] per dish. […]

B1: CCmut3: modified Bcr-Abl coiled-coil domain (residues 1-72) with mutations C38A, K39E, S41R, L45D, E48R, Q60E (protein)
chain: MVDPVGFAEAWKAQFPDSEPPRMELRSVGDIEQELERAEARIRRDEQRVNQERFRMIYLETLLAKEKKSYDR
- colony formation, in words: not affected; also recorded: no effect on parental Ba/F3 controls
- colony formation, in words (listed as CC^mut3): not affected; also recorded: no difference between treatment groups
